The subject of data set [1] is T1, dCas12j-8 E258R+D313R E258R;D313R;D369A;E567A;D658A (bacteriophage (metagenome)).
T1 sequence: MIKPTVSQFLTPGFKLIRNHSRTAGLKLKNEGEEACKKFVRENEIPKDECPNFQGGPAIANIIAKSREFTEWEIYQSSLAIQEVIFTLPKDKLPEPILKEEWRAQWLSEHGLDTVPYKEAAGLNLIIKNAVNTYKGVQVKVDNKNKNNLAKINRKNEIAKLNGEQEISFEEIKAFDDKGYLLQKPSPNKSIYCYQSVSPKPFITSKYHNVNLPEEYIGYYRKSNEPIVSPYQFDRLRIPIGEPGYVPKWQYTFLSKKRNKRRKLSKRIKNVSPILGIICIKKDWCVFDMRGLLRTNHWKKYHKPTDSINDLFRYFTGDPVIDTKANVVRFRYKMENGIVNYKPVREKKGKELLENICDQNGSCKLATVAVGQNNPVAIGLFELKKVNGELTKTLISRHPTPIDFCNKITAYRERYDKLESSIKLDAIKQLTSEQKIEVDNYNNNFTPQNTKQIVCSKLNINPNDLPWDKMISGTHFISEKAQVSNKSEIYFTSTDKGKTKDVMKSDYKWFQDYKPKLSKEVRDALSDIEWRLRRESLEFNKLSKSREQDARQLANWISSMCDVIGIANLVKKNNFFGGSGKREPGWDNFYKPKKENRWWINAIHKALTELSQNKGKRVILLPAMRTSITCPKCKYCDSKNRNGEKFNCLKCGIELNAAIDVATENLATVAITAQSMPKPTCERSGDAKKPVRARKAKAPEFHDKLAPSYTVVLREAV
The settings on record: HEK293T cells; panel 1d (compare within a panel only); scale: mean GFP / mean GFP of wild type, printed, no background subtraction.

Data set [2] has as its system T2, dCas12j-8 E258R+D313R+D495R+E547R E258R;D313R;D495R;E547R;D369A;E567A;D658A (bacteriophage (metagenome)).
T2 sequence: T1 sequence with D495R, E547R
Particulars: HEK293T cells; panel 1e (compare within a panel only); scale: mean GFP / mean GFP of wild type, printed, no background subtraction.

Data set [3] relates to T3, dCas12j-8 E258R+D313R+D527R E258R;D313R;D527R;D369A;E567A;D658A (bacteriophage (metagenome)).
T3 sequence: T1 sequence with D527R
The settings on record: HEK293T cells; panel 1e (compare within a panel only); scale: mean GFP / mean GFP of wild type, printed, no background subtraction.

The test system of data set [4] is T4, dCas12j-8 E258R+D523R E258R;D523R;D369A;E567A;D658A (bacteriophage (metagenome)).
T4 sequence: T1 sequence with R313D, D523R
Particulars: HEK293T cells; panel 1d (compare within a panel only); scale: mean GFP / mean GFP of wild type, printed, no background subtraction.

Numbering of substitutions follows the chain as printed.

Regarding “CUUUCAAGACUAAUAGAUUGCUCCUUACGAGGAGACACUCCCUAUCAGUGAUAGAG / TTNACTCCCTATCAGTGATAGAG / CTCTATCACTGATAGGGAGTNAA [TetO]”, the binding signal came to 3.3 in data set [1], 4.81 in data set [2], 5.09 in data set [3] and 2.67 in data set [4].

These data come from PMC12412624, “Engineered Cas12j‐8 is a Versatile Platform for Multiplexed Genome Modulation in Mammalian Cells”.
